Assay results reported in the supplement of paper PMC12042874.
± gives the uncertainty stated by the source.

Test: amyloid nucleation score (Sup35N fusion, yeast selection) (log enrichment); library NNK2; higher = more nucleation; inactive = no reads after selection
How it was run: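 The nucleation score equals the log enrichment of output over input reads from DiMSum, centred on the mode score of non-aggregating sequences. It was computed only for sequences with 100 or more input reads. The reads came from Illumina sequencing of plasmid inserts from psi-negative yeast expressing Sup35N fused to peptides of 20 random codons, induced with 100 μM copper sulfate for 24 hours and grown 7 days at 30°C without adenine and uracil.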

Substance | amyloid nucleation score
STNYQLSLFR | 3.96 ± 0.086
TGHWMGPSDYRQRVCH | inactive
ADGVSSWLTVLTFSHWRVK | 1 ± 0.31
AIFDTIYC | -0.541 ± 1.1
IYYRVWMSFSFRG | -0.717 ± 0.37
MTFDNDVCVSI | inactive
FVDDLARGLLVKRECSWQMQ | 0.523 ± 0.33
LSSGEYVSSGMRGTSCEKSK | -0.007 ± 0.79
SDCYDDKINVVQSKAVSITL | 0.075 ± 0.76
LIFRSVSVSFIPLLMKDGNG | -0.042 ± 0.74
SLGCSAFR | -1.62 ± 0.62
CISWL | inactive
LRDCLIRNPLKLRTKLTGHV | 0.608 ± 0.3
VFLFDLGYQGR | 6.67 ± 0.073
KCEYGLSVKYCVGQTGGN | 1.17 ± 0.48
HVAQTS | 1.04 ± 0.4
GNMYLSEVNVTC | -0.78 ± 1.1
TFVKRIRYCFYLS | 6.386 ± 0.023
CVVEQALLLWN | -0.243 ± 0.79
YLLLNYQACTMLDWNWVWVW | 5.31 ± 0.071
FCVISKGRHVSMRTTSGFLE | -0.834 ± 0.54
KFTVDFYLTACTGTKIDFMV | 5.981 ± 0.04
DDSNCNNHGRVDDKVR | 4.9 ± 0.038
RRIKPIVLPTVCFYYVSITS | inactive
AKVCLYIAICLSLVNS | 2.98 ± 0.065

Substance | amyloid nucleation score
CRISQTFF | 1.82 ± 0.15
ILKIAARIYLGLWTVFDWCG | 0.523 ± 0.27
FRFTQDMDFRAQFDELSWRL | 2 ± 0.28
FSFYLGRKSMRWCNSCWYSW | -0.445 ± 0.22
QRPRGLNLRYTDTRWIFYGP | 4.37 ± 0.045
VRTWCAFYTVIRGWYRLLGS | 0.231 ± 0.5
LFVDKMCERDFYFVSSHRYR | 0.306 ± 0.8
CLVAQNVTVMVSGV | 5.94 ± 0.065
MGVKPTPCRVRPPRRPGASA | 1.68 ± 0.27
VWSRRYTLVGFTSVVPSNDN | 0.3 ± 0.37
HPTSYVPSYLSFASKWLRVA | 0.571 ± 0.3
SNRCLIIFLILC | 5.92 ± 0.077
VKLIGKITELGKNRMLMLWT | 0.429 ± 0.28
VKITGPRWLATIICYMFR | 6.47 ± 0.075
CEISFVFIWILIVFNNVDPD | inactive
DCWWYRLDSMYDLTYLGIGR | -1.03 ± 0.63
SAYDSTCRFISGFL | -1.68 ± 1
YFFTLKV | 0.497 ± 0.46
SFHYLYWIIRLVGRVYLDEG | -0.195 ± 0.36
RFFYSCQASYPCSMVEMSVC | -0.901 ± 0.44
SDMRCGYMLRCWLVQRVSHR | 1.48 ± 0.54
QIACDCNLGGKWFTDMCYFA | -0.94 ± 0.55
SFLRSNRGEVLPCNILNYVA | inactive
NGVGLSVTGKCCKERSIFPP | -0.406 ± 0.5
VWDAEFSGPLRHEIMSGFVW | 0.08 ± 0.3

Substance | amyloid nucleation score
GLHSGNFTACICM | 8.731 ± 0.055
MVGCFWVMFVGREIYSRVRS | -0.915 ± 0.26
GFKYVRSRNSGALYKYSS | -0.962 ± 0.54
YVLPLPGNLNIMEAAGRYYA | 4.04 ± 0.057
CYNLCCLPFCGVNLMFWLQV | 7.992 ± 0.033
IGSWSTA | 0.367 ± 0.36
RYCFT | 1.03 ± 0.38
MMLRLSCSSPQSLVRSSS | -0.181 ± 0.63
WLWSSLISSMVVYSQ | 2.53 ± 0.072
PTSNPSQRSRQRHQ | 0.619 ± 0.81
MYLLFGSLTVYRIHYSVSNT | -1.14 ± 1.1
TYCILPLRVRMWTSTTLCQV | 4.59 ± 0.055
ISFIDHYVY | inactive
WVGGYIQLFYVTRPQVSGRP | 3.17 ± 0.061
ERYLCVVDMEIKGRALRKRW | -0.144 ± 0.44
INSASESKGKGIILSTNGDS | -0.717 ± 0.39
YARTKDYVLVCLQGICAGVN | -0.14 ± 1
FNSLGFRLTSCIDRVTLVLW | inactive
RGWKSLWRLNFYVWVWHLKD | 2.67 ± 0.09
MSIWCNSIDRTFIDNLRPVF | -1.43 ± 0.62
SIYKIILNSILPPHYNFLTY | -1.21 ± 1
LPCFYEVCQTSHYRFYFIGK | 1.96 ± 0.071
SLGEKRFACLATSCCADDCT | 0.508 ± 0.2
VHYVFSCCNKLPSANSRWGL | 6.718 ± 0.066
VCREMSYLQ | -0.809 ± 0.54

Substance | amyloid nucleation score
YSFAMLGGQESRMSMCCGER | 0.791 ± 0.32
RFWMNNSLNLCQLILTR | 0.333 ± 0.61
KLANYHLARDSFMVRKHRKG | 0.602 ± 0.57
FCVLIGGCFFGNSK | 6.157 ± 0.038
IFHSESALWRHRYMGYVMVR | -0.66 ± 0.45
IKKIRYPRFLVVLN | inactive
VIRSLSFLSYIWVDKGVGVV | -0.89 ± 0.53
RVPTSNLWSGNFYTALRVTG | -0.833 ± 0.63
GGNVLRE | -0.527 ± 0.35
PHVRTFRRFRWMY | -0.251 ± 0.39
FDLCCMKYHSYHMQFI | -0.214 ± 1
SLARYAGGFRARSGKIFSVC | 0.802 ± 0.22
RPFLSTEKRSILMCRVVKGM | -0.254 ± 0.37
HVLYDCMGVIIKSCHYLDLC | -0.508 ± 0.37
VVERKLVMHYGMEMYTVHDG | 0.971 ± 0.51
SIHEMYFKAMDSVH | -0.276 ± 0.62
AVFSRYCLIYVIMLDHDTDP | 5.03 ± 0.099
SPCLDGDRHVGSQMLSPLSW | 0.919 ± 0.33
TSPGTGIVGDIYLHYIFVKW | 0.327 ± 0.46
KDNSTPRIGASDEIDVVLAF | 0.078 ± 0.77
RLMRAKCMQWVSFQ | -0.034 ± 0.4
GNNIVDPMLYLEGFKFSPIP | 0.082 ± 0.65
KSKLRCTFYSDAL | -0.219 ± 0.27
MDLRVTVILFSDYEAYFDVT | 1.33 ± 0.18
LQRVF | 1.19 ± 0.47

Substance | amyloid nucleation score
NDRHLRWPFCPCYQVRLCIT | inactive
FYIGILGDLWWRRR | 1.15 ± 0.57
SMVKKLQMESPAFSVGIFWV | 7.74 ± 0.085
SFDKGIDYRFFTFNSNVKYW | 3.49 ± 0.12
ACGPQPETLSGLMSRGLLRR | 0.619 ± 0.64
YEHRNGLWSMKKRLIG | 0.253 ± 0.31
SDSYAILLPC | 0.087 ± 0.79
SMPWYMYCIVYYVDVYCCNI | 6.566 ± 0.039
WYISARPYVFCYDMQRSLRL | -0.505 ± 1.1
YYGQSPALDRR | -0.238 ± 0.45
GFIYLILTL | 1.28 ± 0.13
YAESSNDARSSFISKVSAFI | inactive
MEFDVLSIFQRGSRAGAK | -1.3 ± 0.54
PGYNSFLWWAAME | -0.271 ± 0.34
LFDLDSESRMTPQGGLRNAT | -0.665 ± 0.54
CYFSLQNSKDMRDLELDAIN | -1.46 ± 0.55
RHAHWRVSSMDSVQFMWGE | 3.18 ± 0.12
GYSAYESANWRLA | 1.19 ± 0.44
ISVRVFNRNT | 3.15 ± 0.078
LLMFRVRVDELWHGAARHMG | 1.64 ± 0.38
GDLRYQSPSLCFCFMSFGDQ | 5.971 ± 0.024
YERVRRSVYSSMFFSLFNTR | -0.357 ± 1.1
FNIMIWA | inactive
RRRCFQLK | 0.294 ± 0.8
LNIAMVASNGRSVAVRSSGG | 0.113 ± 0.5

Substance | amyloid nucleation score
GRTYGFSSRVVMRRGSCDFG | 0.913 ± 0.52
KFRNCVRKDFLSMHHFSVVF | -0.666 ± 0.45
HLEPRIPLWMPVFGVSKVRS | 2.7 ± 0.12
DRFVWVADTWWSRRNNAAFG | 4.16 ± 0.054
TMNIKLWGAGTRRMFEMEPG | 2.35 ± 0.22
NELVSLQVIWIF | -0.098 ± 0.79
SFGNYRSVWYVTDVFAHIHL | 8.335 ± 0.056
LCTGTCDTSAHVSSIYKFRD | -0.712 ± 1.1
FHSRFSMRPDDLWSQNARVW | 0.028 ± 0.79
LCCGSLDIYWFVFFF | 1.63 ± 0.25
VLTVN | inactive
TSRKGNSSHL | -1.54 ± 0.75
RKPPMPRFQLDSNRQKG | 0.313 ± 0.64
TLMKVRVYSSYGKVHVGSLA | 5.03 ± 0.08
NRAVGLLRYTMVMGT | 0.026 ± 1.1
VCAQLYPVYMWFWICMGMVQ | 2.27 ± 0.14
IGVSLTYKIQVSTRLFSTLY | 3.29 ± 0.15
TQRVGGIRW | 0.105 ± 0.24
QLVGMD | 0.868 ± 0.27
AGDLKRLSSQQLM | 4.03 ± 0.051
NYAPGFTWFSMTNKKDFNVS | inactive
RLRNLFSYWLSEERSGPDGW | 2.03 ± 0.14
LHHFSVTYNSITFCLNFPFR | 4.11 ± 0.065
WKNYRNMEWCVSSVLSFFYV | 5.31 ± 0.077
RISDDWVYLLCSCKGQGFLW | 0.157 ± 1

Substance | amyloid nucleation score
LFCVRSRLGVGCYRIWG | 5.364 ± 0.046
FGSALFSIILH | 5.607 ± 0.033
VYSPAIFTNVFSYVSCEEER | 6.56 ± 0.072
VRSRKCLSVRLFSSVMGVSD | -0.88 ± 0.54
RNRCSSDFGSGRINVDGFNM | inactive
FGLLWNNQSWLVARVSCSNL | -0.04 ± 0.36
FSPLC | 1.83 ± 0.14
CTSLLI | -0.545 ± 0.48
HMEAFWCWFYGNVAFNRFCV | -0.305 ± 1
LNTYMAYSGWIVTN | -0.148 ± 0.33
ICSYVTVCVRLGFCKLNAMM | 0.504 ± 0.51
ISVVNSGCCCITTHPLRTYR | 9.867 ± 0.079
MMGVCF | -0.916 ± 1.1
PNSSNPNPMRLVFRSMSFRL | 0.269 ± 0.64
LMVKSDTCLLSLLSPTPFRR | 3.67 ± 0.1
INQFIFGTKRMSKNYVSMVR | inactive
LGTEAEWCVGLMCSVKRYQM | 4.58 ± 0.068
LTGMVTCATI | 0.53 ± 0.36
VFCHLE | 2.43 ± 0.13
TDVTYRNVVVSSRKFSGNRN | 8.149 ± 0.073
YTTNIF | -0.793 ± 0.49
